Laboratory results reported in patent US20080234198A1 (Eli Lilly, published 2008).
Numbering of substitutions follows the chain as printed.

T1: human VPAC2 receptor (human, UniProt P41587 24-438)
T1 sequence (looked up): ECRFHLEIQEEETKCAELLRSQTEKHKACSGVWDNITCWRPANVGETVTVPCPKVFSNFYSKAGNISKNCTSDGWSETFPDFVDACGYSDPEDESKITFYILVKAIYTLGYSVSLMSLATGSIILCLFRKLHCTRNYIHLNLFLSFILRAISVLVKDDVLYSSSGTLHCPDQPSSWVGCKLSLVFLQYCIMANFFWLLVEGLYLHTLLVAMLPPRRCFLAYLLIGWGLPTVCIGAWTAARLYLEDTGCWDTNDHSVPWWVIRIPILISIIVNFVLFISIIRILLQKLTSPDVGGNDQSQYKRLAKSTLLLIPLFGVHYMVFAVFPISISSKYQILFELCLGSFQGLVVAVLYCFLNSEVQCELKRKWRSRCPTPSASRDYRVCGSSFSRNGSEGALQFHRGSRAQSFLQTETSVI

T2: rat VPAC1 receptor (rat, UniProt P30083 31-459)
T2 sequence (looked up): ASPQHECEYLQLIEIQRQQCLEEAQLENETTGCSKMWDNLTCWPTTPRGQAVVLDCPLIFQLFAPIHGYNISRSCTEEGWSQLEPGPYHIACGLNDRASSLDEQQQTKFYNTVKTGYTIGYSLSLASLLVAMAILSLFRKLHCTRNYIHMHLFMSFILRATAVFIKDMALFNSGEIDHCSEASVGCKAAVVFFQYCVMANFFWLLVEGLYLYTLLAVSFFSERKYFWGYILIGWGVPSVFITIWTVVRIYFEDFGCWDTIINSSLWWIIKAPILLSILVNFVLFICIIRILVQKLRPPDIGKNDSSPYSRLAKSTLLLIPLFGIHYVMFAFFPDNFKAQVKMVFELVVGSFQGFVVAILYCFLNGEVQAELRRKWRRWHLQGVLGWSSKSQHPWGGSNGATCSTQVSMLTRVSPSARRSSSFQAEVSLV

T3: rat VPAC2 receptor (rat, UniProt P35000 23-437)
T3 sequence (looked up): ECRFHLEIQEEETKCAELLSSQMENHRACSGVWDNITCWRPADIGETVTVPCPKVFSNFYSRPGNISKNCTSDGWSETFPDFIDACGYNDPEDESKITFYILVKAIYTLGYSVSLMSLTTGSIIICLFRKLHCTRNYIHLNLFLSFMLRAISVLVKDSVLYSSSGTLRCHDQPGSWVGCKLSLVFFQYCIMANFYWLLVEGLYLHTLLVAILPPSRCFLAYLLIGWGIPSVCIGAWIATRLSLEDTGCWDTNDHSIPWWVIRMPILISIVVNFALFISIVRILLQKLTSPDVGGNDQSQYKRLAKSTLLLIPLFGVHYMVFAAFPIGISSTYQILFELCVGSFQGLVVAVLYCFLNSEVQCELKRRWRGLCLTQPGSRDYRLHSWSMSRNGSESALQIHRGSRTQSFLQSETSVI

B1: P580 (peptide)
peptide: HSDAVFTEQYTXLRXQLAXXXYLQXIXXCGGPSSGAPPPC
modifications: C6-HSDAVFTEQY(OMe)TOrnLRAibQLAAbuAibOrnYLQAibIOrnOrnC(PEG20K)GGPSSGAPPPC(PEG20K)-NH2
B2: P551 (peptide)
peptide: B1 peptide with X25S, C29X
modifications: C6-HSDAVFTEQY(OMe)TOrnLRAibQLAAbuAibOrnYLQSIOrnK(CO(CH2)2SPEG20K)OrnGGPSSGAPPPC(PEG20K)-NH2
B3: P572 (peptide)
peptide: B1 peptide with X25S
modifications: C6-HSDAVFTEQY(OMe)TOrnLRAibQLAAbuAibOrnYLQSIOrnOrnC(PEG20K)GGPSSGAPPPC(PEG20K)-NH2
B4: P555 (peptide)
peptide: B1 peptide with X25S, X28C, C29X
modifications: C6-HSDAVFTEQY(OMe)TOrnLRAibQLAAbuAibOrnYLQSIOrnC(PEG20K)OrnGGPSSGAPPPC(PEG20K)-NH2
B5: P553 (peptide)
peptide: B1 peptide with X28C, C29X
modifications: C6-HSDAVFTEQY(OMe)TOrnLRAibQLAAbuAibOrnYLQAibIOrnC(PEG20K)OrnGGPSSGAPPPC(PEG20K)-NH2
B6: P562 (peptide)
peptide: B1 peptide with L17V, X19A, X25S
modifications: C6-HSDAVFTEQY(OMe)TOrnLRAibQVAAAibOrnYLQSIOrnOrnC(PEG20K)GGPSSGAPPPC(PEG20K)-NH2
B7: P570 (peptide)
peptide: HSDAVFTEQYTXLRXQLAXXXYLQXIXXGGPSSGAPPPCC
modifications: C6-HSDAVFTEQY(OMe)TOrnLRAibQLAAbuAibOrnYLQAibIOrnOrnGGPSSGAPPPC(PEG30K)C(PEG30K)-NH2

Target: T1, human VPAC2 receptor
Experiment: cell-based or functional assay

Point of comparison: B1, “Human VPAC2 Receptor: Alphascreen (EC50; nM)” value 10.9 nM. Against it:
- HSDAVFTEQYTXLRXQLAXXXYLQXIXCXGGPSSGAPPPS (C6-HSDAVFTEQY(OMe)TOrnLRAibQLAAbuAibOrnYLQAibIOrnC(PEG40K)OrnGGPSSGAPPPS-NH2) [P537] — 2.9-fold higher, 32 nM
- HSDAVFTEQYTXLRXQLAXXXYLQSIXCXGGPSSGAPPPS (C6-HSDAVFTEQY(OMe)TOrnLRAibQLAAbuAibOrnYLQSIOrnC(PEG40K)OrnGGPSSGAPPPS-NH2) [P539] — within 1.5-fold, 10.7 nM
- HSDAVFTEQYTXLRXQLAAXXYLQSIXXCGGPSSGAPPPS (C6-HSDAVFTEQY(OMe)TOrnLRAibQLAAAibOrnYLQSIOrnOrnC(PEG40K)GGPSSGAPPPS-NH2) [P560] — within 1.5-fold, 13.8 nM
- B2 — within 1.5-fold, 15.6 nM
- HSDAVFTEQYTXLRXQLAXXXYLQSIXXCGGPSSGAPPPS (C6-HSDAVFTEQY(OMe)TOrnLRAibQLAAbuAibOrnYLQSIOrnOrnC(PEG40K)GGPSSGAPPPS-NH2) [P566] — within 1.5-fold, 11.8 nM
- B3 — within 1.5-fold, 11.2 nM
- B4 — 2.1-fold higher, 22.5 nM
- B5 — within 1.5-fold, 15 nM
- B6 — 2.8-fold higher, 30.2 nM
- HSDAVFTEQYTRXRXQLAAXXYLQSIKXXGGPSSGAPPPC (C6-HSDAVFTEQY(OMe)TRAibRAibQLAAAibOrnY(OMe)LQSIKAibOrnGGPSSGAPPPC(PEG40K)-NH2) [P417] — within 1.5-fold, 14.7 nM
- B7 — within 1.5-fold, 13.4 nM

Point of comparison: HSDAVFTEQYTXLRXQLAXXXYLQSIXCXGGPSSGAPPPS (C6-HSDAVFTEQY(OMe)TOrnLRAibQLAAbuAibOrnYLQSIOrnC(PEG40K)OrnGGPSSGAPPPS-NH2) [P539], “Human VPAC2 Receptor: DiscoveRx (EC50; nM)” value 47.3 nM. Against it:
- HSDAVFTEQYTXLRXQLAAXXYLQSIXXCGGPSSGAPPPS (C6-HSDAVFTEQY(OMe)TOrnLRAibQLAAAibOrnYLQSIOrnOrnC(PEG40K)GGPSSGAPPPS-NH2) [P560] — 4.2-fold lower, 11.3 nM
- HSDAVFTEQYTXLRXQLAXXXYLQSIXXCGGPSSGAPPPS (C6-HSDAVFTEQY(OMe)TOrnLRAibQLAAbuAibOrnYLQSIOrnOrnC(PEG40K)GGPSSGAPPPS-NH2) [P566] — 6.1-fold lower, 7.8 nM
- B4 — 5.8-fold lower, 8.1 nM
- B6 — 2-fold lower, 24.2 nM
- B7 — 11-fold lower, 4.5 nM

Target: T1, human VPAC2 receptor
Experiment: filter binding, VPAC2 cell membranes, displacement of 125I-VIP
Protocol: Binding assays: Membrane prepared from a stable VPAC2 cell line (see Example 3) or from cells transiently transfected with human VPAC1 or PAC1 are used.
The assay plate is filled with 25 μL assay buffer, 25 μL membranes (2.5 μg) suspended in assay buffer, 25 μL agonist in assay buffer, and 25 μL tracer (about 40000 cpm) in assay buffer. The filled plate is incubated for 1 hour with shaking.
The transfer from assay plate to filter plate is conducted. The blocking buffer is aspirated by vacuum filtration and washed two times with flush buffer. 90 μL is transferred from the assay plate to the filter plate. The 90 μL transferred from assay plate is aspirated and washed three times with 200 μL flush buffer. The plastic support is removed. It is dried for 1 hour at 60° C. 30 μL Microscint is added. The count is performed.

Point of comparison: HSDAVFTEQYTXLRXQLAXXXYLQSIXCXGGPSSGAPPPS (C6-HSDAVFTEQY(OMe)TOrnLRAibQLAAbuAibOrnYLQSIOrnC(PEG40K)OrnGGPSSGAPPPS-NH2) [P539], IC50 13.5 nM. Against it:
- HSDAVFTEQYTXLRXQLAXXXYLQXIXCXGGPSSGAPPPS (C6-HSDAVFTEQY(OMe)TOrnLRAibQLAAbuAibOrnYLQAibIOrnC(PEG40K)OrnGGPSSGAPPPS-NH2) [P537] — within 1.5-fold, 17.2 nM
- HSDAVFTEQYTXLRXQLAAXXYLQSIXXCGGPSSGAPPPS (C6-HSDAVFTEQY(OMe)TOrnLRAibQLAAAibOrnYLQSIOrnOrnC(PEG40K)GGPSSGAPPPS-NH2) [P560] — within 1.5-fold, 11.6 nM
- B1 — 1.5-fold higher, 20.7 nM
- B2 — within 1.5-fold, 16.6 nM
- HSDAVFTEQYTXLRXQLAXXXYLQSIXXCGGPSSGAPPPS (C6-HSDAVFTEQY(OMe)TOrnLRAibQLAAbuAibOrnYLQSIOrnOrnC(PEG40K)GGPSSGAPPPS-NH2) [P566] — 1.6-fold lower, 8.2 nM
- B3 — within 1.5-fold, 14.9 nM
- B4 — within 1.5-fold, 15.4 nM
- B5 — 1.6-fold higher, 21.7 nM
- B6 — 3.2-fold higher, 42.8 nM
- HSDAVFTEQYTRXRXQLAAXXYLQSIKXXGGPSSGAPPPC (C6-HSDAVFTEQY(OMe)TRAibRAibQLAAAibOrnY(OMe)LQSIKAibOrnGGPSSGAPPPC(PEG40K)-NH2) [P417] — 1.8-fold higher, 24.1 nM
- B7 — 3.3-fold lower, 4.1 nM

Target: T2, rat VPAC1 receptor
Experiment: cell-based or functional assay

Point of comparison: HSDAVFTEQYTXLRXQLAXXXYLQSIXCXGGPSSGAPPPS (C6-HSDAVFTEQY(OMe)TOrnLRAibQLAAbuAibOrnYLQSIOrnC(PEG40K)OrnGGPSSGAPPPS-NH2) [P539], “Rat VPAC1 Receptor: DiscoveRx: (EC50; nM)” value 32.6 nM. Against it:
- HSDAVFTEQYTXLRXQLAXXXYLQXIXCXGGPSSGAPPPS (C6-HSDAVFTEQY(OMe)TOrnLRAibQLAAbuAibOrnYLQAibIOrnC(PEG40K)OrnGGPSSGAPPPS-NH2) [P537] — 6.3-fold higher, 206 nM
- HSDAVFTEQYTXLRXQLAAXXYLQSIXXCGGPSSGAPPPS (C6-HSDAVFTEQY(OMe)TOrnLRAibQLAAAibOrnYLQSIOrnOrnC(PEG40K)GGPSSGAPPPS-NH2) [P560] — 4.8-fold higher, 156 nM
- B1 — 30-fold lower, 1.1 nM
- B2 — 5.3-fold higher, 172 nM
- HSDAVFTEQYTXLRXQLAXXXYLQSIXXCGGPSSGAPPPS (C6-HSDAVFTEQY(OMe)TOrnLRAibQLAAbuAibOrnYLQSIOrnOrnC(PEG40K)GGPSSGAPPPS-NH2) [P566] — 1.6-fold higher, 52.7 nM
- B3 — 2.9-fold higher, 94.5 nM
- B4 — 2.1-fold higher, 68.9 nM
- B5 — 8-fold higher, 262 nM
- B6 — 12-fold higher, 393 nM
- HSDAVFTEQYTRXRXQLAAXXYLQSIKXXGGPSSGAPPPC (C6-HSDAVFTEQY(OMe)TRAibRAibQLAAAibOrnY(OMe)LQSIKAibOrnGGPSSGAPPPC(PEG40K)-NH2) [P417] — 7.1-fold higher, 232 nM
- B7 — 2.7-fold higher, 86.7 nM

Target: T3, rat VPAC2 receptor
Experiment: cell-based or functional assay

Point of comparison: HSDAVFTEQYTXLRXQLAXXXYLQSIXCXGGPSSGAPPPS (C6-HSDAVFTEQY(OMe)TOrnLRAibQLAAbuAibOrnYLQSIOrnC(PEG40K)OrnGGPSSGAPPPS-NH2) [P539], “Rat VPAC2 Receptor: DiscoveRx: (EC50; nM)” value 21 nM. Against it:
- HSDAVFTEQYTXLRXQLAXXXYLQXIXCXGGPSSGAPPPS (C6-HSDAVFTEQY(OMe)TOrnLRAibQLAAbuAibOrnYLQAibIOrnC(PEG40K)OrnGGPSSGAPPPS-NH2) [P537] — 1.8-fold higher, 38.8 nM
- HSDAVFTEQYTXLRXQLAAXXYLQSIXXCGGPSSGAPPPS (C6-HSDAVFTEQY(OMe)TOrnLRAibQLAAAibOrnYLQSIOrnOrnC(PEG40K)GGPSSGAPPPS-NH2) [P560] — within 1.5-fold, 20.4 nM
- B1 — 1.8-fold lower, 11.9 nM
- B2 — 1.6-fold lower, 13.2 nM
- HSDAVFTEQYTXLRXQLAXXXYLQSIXXCGGPSSGAPPPS (C6-HSDAVFTEQY(OMe)TOrnLRAibQLAAbuAibOrnYLQSIOrnOrnC(PEG40K)GGPSSGAPPPS-NH2) [P566] — 1.6-fold lower, 13.1 nM
- B3 — 1.9-fold lower, 10.8 nM
- B4 — 1.5-fold higher, 32.5 nM
- B5 — within 1.5-fold, 22 nM
- B6 — 2.5-fold higher, 52.5 nM
- HSDAVFTEQYTRXRXQLAAXXYLQSIKXXGGPSSGAPPPC (C6-HSDAVFTEQY(OMe)TRAibRAibQLAAAibOrnY(OMe)LQSIKAibOrnGGPSSGAPPPC(PEG40K)-NH2) [P417] — 2.4-fold lower, 8.7 nM
- B7 — within 1.5-fold, 21.3 nM
